This note sets out measurements from article PMC12682122.

This assay deals with alpha-enolase (baker's yeast) (baker's yeast) (UniProt P00924). Description: cross-linking; 1 mg/ml alpha-enolase in PBS with BVSS-Me, BVSS-Et, BVSS-Ph, Alkyne-BVSC or DSBSO (1 mM, 1 h, 37 °C; DSBSO 30 min RT); SDS-PAGE, Coomassie stain; DMSO as negative control.

Usually stoichiometry N stands for a count of units in the complex or per binding partner. In turn, “alpha-enolase (baker's yeast) (from UniProt P00924 1-437) (enzyme)” came in with a stoichiometry N of 2.
